“And” between values parts separate entries of the source, which are not always exact repeats. Identical values can stand only once.
Experiments:
M. tuberculosis PHGDH = details: reverse reaction; cited from earlier work
E. coli PHGDH = details: reverse reaction; cited from earlier work
hPHGDH [1] = biological target: T1, hPHGDH (Homo sapiens, UniProt O43175); assay: Effect of salts, phosphate and serine synthesis metabolites on hPHGDH activity (hydrazine assay); assay type: biochemical; design: His-tagged full-length hPHGDH was expressed in BL21(DE3) E. coli cells; made in house; host or cells: E. coli BL21(DE3); details: up to 50 mM final concentration
T1 sequence (O43175 1-533): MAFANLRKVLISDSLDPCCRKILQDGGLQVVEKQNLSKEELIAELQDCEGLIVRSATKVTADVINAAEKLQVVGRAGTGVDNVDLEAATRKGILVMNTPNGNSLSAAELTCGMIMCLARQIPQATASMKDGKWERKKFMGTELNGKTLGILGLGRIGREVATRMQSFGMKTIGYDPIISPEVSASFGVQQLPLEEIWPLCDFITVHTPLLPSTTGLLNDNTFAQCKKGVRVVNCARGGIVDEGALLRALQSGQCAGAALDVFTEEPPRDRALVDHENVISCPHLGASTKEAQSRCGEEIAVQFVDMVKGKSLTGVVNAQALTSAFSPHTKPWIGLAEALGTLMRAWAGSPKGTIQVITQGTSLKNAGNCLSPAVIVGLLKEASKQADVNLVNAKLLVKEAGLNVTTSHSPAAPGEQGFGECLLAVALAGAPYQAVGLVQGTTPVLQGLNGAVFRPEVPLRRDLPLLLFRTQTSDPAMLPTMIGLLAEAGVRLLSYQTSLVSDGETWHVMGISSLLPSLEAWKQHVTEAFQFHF
Description: The effects of KCl, NaCl, MgCl2 and CaCl2 and of pH and temperature on enzyme activity and stability were investigated using the hydrazine assay. […] The dependence of activity on pH was fitted using an equation for three pKa values, according to [44], providing apparent values unrelated to microscopic ones.

hPHGDH [2] = biological target: T1, hPHGDH; assay: hPHGDH reverse reaction kinetics (decrease in NADH fluorescence at 450 nm); details: for kcat: per monomer
Description: The latter assay was used to determine the apparent kinetic parameters on alternative substrates.

hPHGDH [3] = biological target: T1, hPHGDH; assay: Inhibition of hPHGDH activity by inhibitors (hydrazine assay); assay type: biochemical; design: His-tagged full-length hPHGDH was expressed in BL21(DE3) E. coli cells; made in house; host or cells: E. coli BL21(DE3); details: kinetics on 3PG at increasing inhibitor concentration
[4] = Maximal solubility of inhibitor stock; assay type: physicochemical; details: dissolved in DMSO
hPHGDH [5] = biological target: T1, hPHGDH; assay: Ligand binding by quenching of protein fluorescence at 330 nm
Description: Protein fluorescence spectra were measured at 0.06–0.1 mg/mL protein concentration in 10 mM potassium phosphate, pH 7.0, 15 °C; spectra were recorded using a Jasco FP-750 instrument and were corrected for the buffer contribution. Protein fluorescence spectra were recorded between 300 and 450 nm, with excitation at 280 and 298 nm.
All recorded spectra were subtracted for the contribution of the ligand (added to the buffer only) and were corrected for dilution at every addition. […] In all cases, Kd values were determined by fitting the data to a hyperbolic function.

hPHGDH [6] = biological target: T1, hPHGDH; assay: Temperature-ramp unfolding (melting temperature) with cofactors; assay type: binding; design: His-tagged full-length hPHGDH was expressed in BL21(DE3) E. coli cells; made in house; host or cells: E. coli BL21(DE3)
Description: Temperature-ramp experiments were performed in 10 mM potassium phosphate, pH 7.0. For this, a software-driven, Peltier-equipped fluorimeter was used to measure the protein fluorescence change at 330 nm or a CD spectropolarimeter to follow the CD signal at 280 nm in order to reproduce a temperature gradient (0.5 °C/min) [31].

truncated hPHGDH form = biological target: truncated hPHGDH form; design: method as in PMID 29262655; details: isothermal calorimetry; cited from earlier work
[7] = biological target: the molecule itself; assay: SEC; Superdex 200 Increase column, increasing potassium phosphate pH 7.0 (100, 250, 500 mM; 0.15 M NaCl added at 100 mM); minor peak ~480 kDa confirmed by anti-His Western blot; tetramers to octamer
[8] = substrate: NC(=O)c1ccc[n+]([C@@H]2O[C@H](COP(=O)(O)OP(=O)(O)OC[C@H]3O[C@@H](n4cnc5c(N)ncnc54)[C@H](O)[C@@H]3O)[C@@H](O)[C@H]2O)c1; assay: purified protein, by the assay type; assay type: biochemical, human; details: 2.5 mM 3PG, pH 7.0; for Km: other: NAD+ varied, Figure S3C
Description: (§1) PSAT was added to drive the reaction and to avoid product inhibition of hPHGDH.

[9] = substrate: O=C(O)CC(O)C(=O)O; assay: purified protein, by the assay type; assay type: biochemical, human; details: hydrazine assay, pH 7.0
Description: as §1

[10] = substrate: O=C(O)C(=O)COP(=O)(O)O; assay: purified protein, by the assay type; details: pH 7.0
[11] = substrate: O=C(O)CC(=O)C(=O)O; assay: purified protein, by the assay type; details: other: reverse reaction, substrate varied, 5 mM NADH, 37 °C, pH 7.0
[12] = substrate: CC(O)CC(=O)O; assay: purified protein, by the assay type; details: hydrazine assay, pH 7.0
[13] = substrate: C[C@@H](O)C(=O)O; assay: purified protein, by the assay type; details: other: forward reaction, substrate varied, 1.5 mM NAD^+, hydrazine assay, 37 °C, pH 7.0, per monomer
[14] = substrate: NC(=O)C1=CN([C@@H]2O[C@H](COP(=O)(O)OP(=O)(O)OC[C@H]3O[C@@H](n4cnc5c(N)ncnc54)[C@H](O)[C@@H]3O)[C@@H](O)[C@H]2O)C=CC1; assay: purified protein, by the assay type; details: other: reverse reaction, NADH varied, 0.5 mM PHP, 37 °C, pH 7.0
[15] = substrate: O=C(O)C(O)C(O)C(=O)O; assay: purified protein, by the assay type; details: other: forward reaction, substrate varied, 1.5 mM NAD^+, hydrazine assay, 37 °C, pH 7.0
[16] = substrate: O=C(O)C(O)COP(=O)(O)O; assay: purified protein, by the assay type; details: pH 7.0
[17] = biological target: the molecule itself; assay: SEC; Superdex 200 Increase column, potassium phosphate pH 7.0 (20 mM with 0.15 M NaCl); major peak approx. 240 kDa; monomers to tetramer
[18] = reverse reaction, NADH varied, 0.5 mM PHP, 37 °C, pH 7.0
[19] = other: forward reaction, substrate varied, […] NAD^+, 37 °C
[20] = other: reverse reaction (discussion value)
[21] = other: reverse reaction, substrate varied, 150 µM NADH, 37 °C
[22] = other: reverse reaction, substrate varied, 5 mM NADH, 37 °C
[23] = other: forward reaction, substrate varied, 1.5 mM NAD^+, 37 °C
[24] = other: forward reaction, substrate varied, 120 µM NAD^+, PSAT-coupled (1) and hydrazine (2) assays, 37 °C
[25] = other: forward reaction, substrate varied, 1.5 mM NAD^+, hydrazine assay, 37 °C

## O=C(O)C(=O)COP(=O)(O)O [PHP, 3-phosphohydroxypyruvate]
M. tuberculosis PHGDH
  Km: 85 µM
E. coli PHGDH
  Km: 40 µM
hPHGDH [1]
  effect on hPHGDH activity on […] 3PG: not affected
hPHGDH [2]; Ki (substrate inhibition), reverse reaction, 150 µM NADH, 37 °C, pH 7.0
  Ki: 2230 µM
hPHGDH [2]; Ki (substrate inhibition), reverse reaction, 5 mM NADH, 37 °C, pH 7.0
  Ki: 1260 µM
hPHGDH [2]; Ki of fit with substrate inhibition, reverse reaction, 150 µM NADH, Figure S4A
  Ki: 2230 µM
hPHGDH [2]; Ki of fit with substrate inhibition, reverse reaction, 5 mM NADH, Figure S4A,C,D
  Ki: 1260 µM
hPHGDH [2]; higher than for the forward reaction on 3PG
  kinetic efficiency kcat/Km ratio, reverse reaction vs forward reaction on 3PG: 20 fold
hPHGDH [2]; reverse reaction, 150 µM NADH, Figure S4A
  maximal rate of fit with substrate inhibition: 1.2871
hPHGDH [2]; reverse reaction, 5 mM NADH, Figure S4A,C,D
  maximal rate of fit with substrate inhibition: 2.282
hPHGDH [2]; reverse reaction, substrate varied, 150 µM NADH, 37 °C, pH 7.0
  kcat: 1.3 s⁻¹

## CBR-5884
hPHGDH [3]
  mechanism of inhibition: noncompetitive inhibition mechanism
[4]
  maximal solubility: ≤ 1000 µM

## NC(=O)C1=CN([C@@H]2O[C@H](COP(=O)(O)OP(=O)(O)OC[C@H]3O[C@@H](n4cnc5c(N)ncnc54)[C@H](O)[C@@H]3O)[C@@H](O)[C@H]2O)C=CC1 [NADH]
hPHGDH [5]; Kd (NAD^+; main phase of NADH binding), discussion value
  Kd: ~130 µM
hPHGDH [5]; Kd, first phase, free enzyme, 15 °C
  Kd: 0.49 ± 0.03 µM
hPHGDH [5]; Kd, second phase, free enzyme, 15 °C
  Kd: 168 µM and 169 µM
hPHGDH [5]; free enzyme
  amplitude of protein fluorescence quenching, first phase: ~35%
  amplitude of protein fluorescence quenching, second phase: 65%
hPHGDH [6]; 120 µM NAD^+ or 100 µM NADH, protein alone 47.5
  Tm, circular dichroism signal at 280 nm: 51.0 °C
hPHGDH [6]; +120 μM NAD^+ or +100 μM NADH, hPHGDH alone 47.2 ± 0.5
  Tm, CD (220 nm): 51.0 ± 0.3 °C
hPHGDH [6]; +120 μM NAD^+ or +100 μM NADH, hPHGDH alone 48.4 ± 2.1
  Tm, Fluorescence (330 nm): 55.7 °C and 55.7 ± 0.1 °C
hPHGDH [2]; [18]
  Km: 560 µM
  kcat: 3.4 s⁻¹
hPHGDH [2]; reverse reaction, NADH varied, 0.5 mM PHP, Figure S4B
  maximal rate of Michaelis–Menten fit: 3.3684
Truncated hPHGDH form
  Kd: 0.2 µM

B1: recombinant human D-3-phosphoglycerate dehydrogenase, His-tagged, full length (enzyme, UniProt O43175 1-533, looked up)
chain: T1 sequence (O43175 1-533)
notes: D-3-phosphoglycerate dehydrogenase, human, 533 amino acids; synthetic gene back-translated from GenBank CAG33076.1, codon-optimised for E. coli, cloned in pETM11 (NcoI/XhoI); The N-terminal 6xHis tag of pETM11 can be cut by TEV protease, but no cleavage is reported; the tagged monomer has a theoretical mass of 59.776 kDa and was detected with an anti-His antibody in the SEC peaks; Tetramer in …
[7]
  stoichiometry N: 8
[8]; PSAT-coupled assay
  Km: 133 µM
[8]; hydrazine assay
  Km: 162 µM
[8]; other: forward reaction, NAD^+ varied, assays 1,2, 37 °C
  kcat/Km: 15100 M⁻¹ s⁻¹
[9]; [19]
  Km: 4480 ± 870 µM
  kcat: 0.44 ± 0.01 s⁻¹
  kcat/Km: 98 M⁻¹ s⁻¹
[9]; other: substrate varied, […] NAD+, Figure S3B,D-F
  Km: 4480 µM
[10]; [20]
  Km: 10 µM
  kcat: 2.28 ± 0.14 s⁻¹
  kcat/Km: 228000 M⁻¹ s⁻¹
[10]; other: reverse reaction, 150 µM NADH, Figure S4A
  Km: 14.1 µM
[10]; other: reverse reaction, 5 mM NADH, Figure S4A,C,D
  Km: 10.2 µM
[10]; [21]
  Km: 0.014 ± 0.003 [Ki = 2.23 ± 0.37] mM
  kcat: 1.29 ± 0.09 s⁻¹
  kcat/Km: 91100 M⁻¹ s⁻¹
[10]; [22]
  Km: 0.010 ± 0.003 [Ki = 1.26 ± 0.25] mM
  kcat: 2.28 ± 0.14 s⁻¹
  kcat/Km: 228000 M⁻¹ s⁻¹
[11]
  Km: 0.90 ± 0.42 [Ki = 152 ± 56] mM
  kcat: 1.76 ± 0.20 s⁻¹
  kcat/Km: 1960 M⁻¹ s⁻¹
[12]; [23]
  Km: 41000 ± 19000 µM
  kcat: 2.53 s⁻¹
  kcat/Km: 61 M⁻¹ s⁻¹
[12]; other: substrate varied, 1.5 mM NAD+, Figure S3B,D-F, 37.0 °C
  Km: 41800 µM
[13]
  kcat: 5.41 s⁻¹
  kcat/Km: 36 M⁻¹ s⁻¹
[14]
  Km: 559 ± 75 µM
  kcat: 3.37 s⁻¹
  kcat/Km: 6000 M⁻¹ s⁻¹
[15]
  Km: 5550 ± 2730 µM
  kcat: 0.41 s⁻¹
  kcat/Km: 74 M⁻¹ s⁻¹
[16]; other: 3PG varied, 120 µM NAD+, PSAT-coupled assay, Figure S3A, 37.0 °C
  Km: 252 µM
[16]; other: 3PG varied, 120 µM NAD+, hydrazine assay, Figure S3A, 37.0 °C
  Km: 317 µM
[16]; [24]
  Km: 255 ± 59 µM
  kcat: 1.48 s⁻¹
  kcat/Km: 5800 M⁻¹ s⁻¹
[16]; [25]
  Km: 360 ± 61 µM
  kcat: 2.97 s⁻¹
  kcat/Km: 8250 M⁻¹ s⁻¹
[16]; other: substrate varied, 1.5 mM NAD+, hydrazine assay, Figure S3B,D-F, 37.0 °C
  Km: 359 µM
[17]
  stoichiometry N: 4

— PMC8073719, “Biochemical and Biophysical Characterization of Recombinant Human 3-Phosphoglycerate Dehydrogenase” (International Journal of Molecular Sciences, 2021)
